In assay [1] the target is PLCγ1 (Homo sapiens) (UniProt P19174). The conditions noted are these: cited from earlier work.
In assay [2] the target is T1, Full-length human PLCγ1 (human, UniProt P19174 1-1290).
T1 construct: phospholipase C gamma 1 (PLCγ1), human, full length; YFP fusions are named only for the lipid array (LiMA), so Myc is surmised here; Cloned in a Gateway-modified pTriEx4 and purified as a His-tagged protein; No removal of tags is described; also called hPLCγ1; intact PLCγ1; source: Freestyle 293F cells, transfected, purified (HisTrap, Superdex 200)
T1 sequence (looked up): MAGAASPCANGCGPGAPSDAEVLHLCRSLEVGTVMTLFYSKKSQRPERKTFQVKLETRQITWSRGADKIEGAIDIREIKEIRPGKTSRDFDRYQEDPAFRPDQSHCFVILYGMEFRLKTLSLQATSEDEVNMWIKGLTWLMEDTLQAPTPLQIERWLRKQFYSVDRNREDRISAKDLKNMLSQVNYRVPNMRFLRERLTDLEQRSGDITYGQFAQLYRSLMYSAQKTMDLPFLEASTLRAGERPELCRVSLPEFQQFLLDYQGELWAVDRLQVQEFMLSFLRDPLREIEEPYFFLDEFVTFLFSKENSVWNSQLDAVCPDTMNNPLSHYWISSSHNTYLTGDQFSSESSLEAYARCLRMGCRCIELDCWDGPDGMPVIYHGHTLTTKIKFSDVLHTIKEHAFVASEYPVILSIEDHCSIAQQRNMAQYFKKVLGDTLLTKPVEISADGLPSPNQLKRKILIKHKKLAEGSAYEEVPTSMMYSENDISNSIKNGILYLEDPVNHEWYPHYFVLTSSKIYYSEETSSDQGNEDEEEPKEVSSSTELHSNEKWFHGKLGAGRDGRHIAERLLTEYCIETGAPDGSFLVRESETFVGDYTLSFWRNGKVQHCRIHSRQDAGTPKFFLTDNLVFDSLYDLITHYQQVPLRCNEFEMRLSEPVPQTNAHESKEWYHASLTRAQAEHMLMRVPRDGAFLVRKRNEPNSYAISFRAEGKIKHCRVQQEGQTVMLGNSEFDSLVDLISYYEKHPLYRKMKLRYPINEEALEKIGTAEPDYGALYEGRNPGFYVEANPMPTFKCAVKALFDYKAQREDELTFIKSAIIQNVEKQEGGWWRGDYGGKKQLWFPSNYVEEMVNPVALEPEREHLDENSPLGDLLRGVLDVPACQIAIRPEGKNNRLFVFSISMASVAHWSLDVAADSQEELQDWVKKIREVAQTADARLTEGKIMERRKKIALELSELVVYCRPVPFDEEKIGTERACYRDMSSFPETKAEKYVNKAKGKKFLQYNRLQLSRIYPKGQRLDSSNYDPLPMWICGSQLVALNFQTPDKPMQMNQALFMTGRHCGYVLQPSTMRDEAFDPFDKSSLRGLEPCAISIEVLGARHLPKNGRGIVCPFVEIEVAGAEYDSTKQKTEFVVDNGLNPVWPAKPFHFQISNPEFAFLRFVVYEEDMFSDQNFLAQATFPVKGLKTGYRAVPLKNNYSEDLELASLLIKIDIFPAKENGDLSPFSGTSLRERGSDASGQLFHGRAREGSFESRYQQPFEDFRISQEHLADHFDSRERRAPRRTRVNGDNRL
Nature of the assay: cryo-EM structure; complex of PLCγ1 and FGFR1-1P (mixed 1:10, purified by SEC), cross-linked with BS3 and purified again; 0.6 mg/ml on grids; 25 mM HEPES, 150 mM NaCl, 2 mM TCEP, pH 7.5; no ATP; Titan Krios with Volta phase plate; map at 5–8 Å with known domain structures docked as rigid bodies. The conditions noted are these: both partners purified.

Consider “FGFR1 intracellular portion (from UniProt P11362)”, for which the dissociation constant (Kd) in assay [1] is 5 nM.

B1: Human FGFR1 kinase domain (456–774, L457V, Y463F, C488A, Y583F, C584S, Y585F, Y653F and Y654F), FGFR1-1P (domain or fragment, UniProt P11362 456-774, looked up)
chain: MVAGVSEFELPEDPRWELPRDRLVLGKPLGEGAFGQVVLAEAIGLDKDKPNRVTKVAVKMLKSDATEKDLSDLISEMEMMKMIGKHKNIINLLGACTQDGPLYVIVEYASKGNLREYLQARRPPGLEFSFNPSHNPEEQLSSKDLVSCAYQVARGMEYLASKKCIHRDLAARNVLVTEDNVMKIADFGLARDIHHIDFFKKTTNGRLPVKWMAPEALFDRIYTHQSDVWSFGVLLWEIFTLGGSPYPGVPVEELFKLLKEGHRMDKPSNCTNELYMMMRDCWHAVPSQRPTFKQLVEDLDRIVALTSNQEYLDLSMPLD
modifications: phosphotyrosine at 766 (pY766; FGFR1-1P)
notes: The methods call the protein in the complex FGFR1-1P, and the results speak of pY766 in its C-terminal tail; How the phosphorylation was made is not described here; also called FGFR1int; FGFRint; source: E. coli C41 (DE3), purified (HisTrap, Ulp1 cleavage, HiTrap Q, Superdex 75); not shown: His tag, N-terminal, cleaved; SUMO (from the vector pOPINS, cut by Ulp1), N-terminal, cleaved
B1: in assay [2], the binding result is given as “binds”.

By Kd is commonly meant the constant that tells how readily two partners part at equilibrium.

The values above are taken from PMC7000336, “Structural insights and activating mutations in diverse pathologies define mechanisms of deregulation for phospholipase C gamma enzymes” (EBioMedicine, 2020).
